Measurements as given in paper PMC8276117.

Biological target: eHSP90α-His6 (secreted from HEK293) (human) (UniProt P07900)
Assay: native gel or EMSA

stoichiometry N: 2
Substance: eHSP90α-His6 (secreted from HEK293) (from UniProt P07900 1-732) (natural protein)
